This is an account of results in patent US20140080161A1, “PHOSPHATASE COUPLED KINASE ASSAY” (RESEARCH AND DIAGNOSTIC SYSTEMS, INC., priority 2010, published 2014).

Data set [1] in a line: Phosphatase coupled kinase assay, ERK1 specific activity. Type of data set: biochemical. As to conditions: 4 mM ATP, 4 mM MBP peptide. The method, then:
(§1) The kinase reactions were carried out in 50 μL of kinase assay buffer including 25 mM Tris, 150 mM NaCl, 5 mM MgCl2, and 5 mM CaCl2 at pH 7.5 in a 96 well plate at room temperature. Each reaction was stopped with 30 μL of Malachite Reagent A and 100 μL of water. The color was developed with 30 μL Malachite Reagent B. The plate was read at 620 nm with a multi-well plate reader. If the predicted phosphate content in the reaction was above 4,000 pmol, the reaction was diluted before phosphate detection.
A series of reactions were performed with extracellular signal-regulated kinase 1 (ERK1) as the kinase. Various amounts of ERK1 (0, 0.1, 0.2, 0.4 and 0.8 μg) were combined with 4 mM ATP, 4 mM MBP peptide acceptor substrate, and 0.2 μg CD39L2. […] The reactions were stopped after 20 minutes, the Malachite Green assay was performed as described above, and the OD was measured at 620 nm. The results are shown in FIG. 10, wherein the OD reading is plotted against the quantity of ERK1. This plot was then used to determine the specific activity of ERK1. The specific activity was calculated by first determining the slope of the curve (0.7728 OD/μg), which was then multiplied by a conversion factor (4081 pmol/OD) and divided by the reaction time (20 minutes) (0.7728 OD/μg×4081 pmol/OD/20 min=157.69 pmol/min/μg). The coupling efficiency of rhCD39L2 in 4 mM ATP was predicted to be 0.4 based on the data of Example 3 (FIG. 5). The specific activity of the ERK1 was then adjusted for the coupling efficiency and was calculated to be 394.22 pmol/min/μg. (157.69 pmol/min/μg/0.4=394.22 pmol/min/μg)

Data set [2] in a line: Specific activity of the phosphatase (free phosphate released per time per amount). Type of data set: biochemical. The text has this:
Phosphatases used in embodiments of the invention have a high specific activity on ADP. The specific activity of the phosphatase used in the examples is the amount of free phosphate released from a substrate per unit time and per amount of phosphatase under a given set of conditions, and may be determined at the rising phase of an enzymatic dose curve, such as the hydrolysis curve as described above. In some embodiments, the phosphatase has a specific activity of greater than 100 pmol/min/μg under optimal conditions. The conditions may include optimal pH, salt concentrations, and the presence of any cofactor. In other embodiments, the phosphatase has a specific activity of greater than 1,000 pmol/min/μg. In still other embodiments, the phosphatase has a specific activity of greater than 20,000 pmol/min/μg. When phosphatases having lower specific activity are used, larger amounts of such phosphatases or longer reaction times may be used to achieve the same level of hydrolysis as can be achieved with a phosphatase having higher specific activity.

The nature of data set [3]: ADP hydrolysis curve with increasing amounts of phosphatase, free phosphate by Malachite Green. In kind it is biochemical. The settings on record: 5 minutes.
Text: The relative activity of the phosphatase on ADP and ATP can be measured by creating hydrolysis curves for ADP and ATP. For example, such hydrolysis curves may be created by performing a series of reactions separately combining set quantities of ADP or ATP with varying quantities of phosphatase and detecting the free phosphate produced. An example of such curves is described in Example 1 below. The resulting phosphate levels (or OD readings, which directly correspond to the phosphate levels) can be plotted against the amount of phosphatase used. The phosphate level or OD readings can be compared at the same quantity of the phosphatase to determine the relative activity of the phosphatase for ADP as compared to ATP. […] The amount of phosphatase to be used for kinase reactions is preferably selected from within the rapidly rising portion of the ADP hydrolysis curve. In addition, the relative activity of the phosphatase for ADP versus ATP is preferably compared within this rapidly rising portion of the hydrolysis curve, at or near the steepest portion of the curve. At phosphatase levels below this range, the generated signals are weak, while at phosphatase levels above this range, the ADP hydrolysis approaches completion, which could underestimate the activity of the phosphatase on ADP due to exhaustion of the substrate.
as §1
In this experiment, the relative activity of rhCD39L2 on ADP and ATP was determined. In a first series of reactions, 100 nmol of 2 mM ATP was combined with increasing amounts of rhCD39L2 (0.03125 μg, 0.0625 μg, 0.125 μg, 0.25 μg, 0.5 μg) for 20 minutes. Likewise in a second series of reactions, 100 nmol of 2 mM ADP was combined with the same increasing amounts of rhCD39L2 for 20 minutes. The reactions were stopped after 20 minutes and free phosphate was measured using the Malachite Green assay as described above.
The relative activity of recombinant mouse CD 39L2 (rmCD39L2) on ADP and ATP was determined in a series of reactions similar to Example 1. 100 nmol of 2 mM ATP was combined with increasing amounts of rmCD39L2 (0.03125 μg, […], 0.125 0.25 μg, 0.5 μg). Likewise in a second series of reactions, 100 nmol of 2 mM ADP was combined with the same increasing amounts of rmCD39L2. The reactions were stopped after 5 minutes and free phosphate was measured using the Malachite Green assay as described above.
The experiment of Example 1 was repeated using recombinant human CD39L4 (rhCD39L4). 100 nmol of ATP (2 mM) was combined with increasing amounts of rhCD39L4 (0.03125 μg, 0.0625 μg, 0.125 μg, 0.25 μg, 0.5 μg, 1.0 μg). Likewise in a second series of reactions, 100 nmol of ADP (2 mM) was combined with the same increasing amounts of rhCD39L4 for 5 minutes. The reactions were stopped after 5 minutes and free phosphate was measured using the Malachite Green assay as described above. […] As such, the necessary preference of the phosphatase for ADP as compared to ATP is present.

For data set [4] the following is noted: enzyme as obtained from R&D Systems; cited from earlier work.

Regarding “ERK1: extracellular signal-regulated kinase 1 from R&D Systems”, the “slope of the curve OD versus quantity of ERK1” value in data set [1] (0.2 μg CD39L2, 20 minutes) was found to be 0.7728 OD/μg. Besides, in data set [1] (20 minutes), the “specific activity before coupling efficiency adjustment” value amounted to 157.69 pmol/min/µg. Besides, in data set [1] (coupling efficiency 0.4), the “specific activity adjusted for the coupling efficiency” value worked out at 394.22 pmol/min/µg.

B1: rhCD39L4: recombinant human CD39L4 phosphatase (protein, UniProt O75356 25-428, looked up)
Nucleoside diphosphate …: NQQTWFEGIFLSSMCPINVSASTLYGIMFDAGSTGTRIHVYTFVQKMPGQLPILEGEVFDSVKPGLSAFVDQPKQGAETVQGLLEVAKDSIPRSHWKKTPVVLKATAGLRLLPEHKAKALLFEVKEIFRKSPFLVPKGSVSIMDGSDEGILAWVTVNFLTGQLHGHRQETVGTLDLGGASTQITFLPQFEKTLEQTPRGYLTSFEMFNSTYKLYTHSYLGFGLKAARLATLGALETEGTDGHTFRSACLPRWLEAEWIFGGVKYQYGGNQEGEVGFEPCYAEVLRVVRGKLHQPEEVQRGSFYAFSYYYDRAVDTDMIDYEKGGILKVEDFERKAREVCDNLENFTSGSPFLCMDLSYITALLKDGFGFADSTVLQLTKKVNNIETGWALGATFHLLQSLGISH
As for B1, the “specific activity on ADP” value in data set [2] was > 1,000 pmol/min/μg. The “level of activity compared with rhCD39L2” value in data set [3] (Example 9, up to 1.0 μg) is recorded as “lower level of activity than rhCD39L2”.

B2: rmCD39L2: recombinant mouse CD39L2 phosphatase (protein, UniProt Q3U0P5 1-455, looked up)
Ectonucleoside triphosphate …: MRKIPNHGTLRMTKVAYPLGLCVGLFIYVAYIKWHRASAAQAFFTIAGAASGARWTQQAFSSPGSAARGHEVFYGIMFDAGSTGTRIHVFQFARPPGETPTLTHETFKALKPGLSAYADDVEKSAQGIQELLNVAKQHIPYDFWKATPLVLKATAGLRLLPGEKAQKLLQKVKEVFKASPFLVGDDCVSIMNGTDEGVSAWITVNFLTGSLKTPGSSSVGMLDLGGGSTQITFLPRVEGTLQASPPGHLTALQMFNRTYKLYSYSYLGLGLMSARLAILGGVEGKPAENDKELVSPCLSPRFRGEWEHAEVTYRISGQKAVGLYELCASRVSEVLRNKVHRTEEAQHVDFYAFSYYYDLAASFGLIDAEKGGSLVVGDFEIAAKYVCRTLETQPPSSPFACMDLTYISLLLHEFGFPGDKVLKLARKIDNVETSWALGAIFHYIDSLKRQKVPAL
Consider B2, for which, in data set [3] (phosphatase at 0.25 μg), the “times greater activity with ADP than with ATP” value is recorded as 30-40 times. In addition, in data set [4], the specific activity is recorded as > 100,000 pmol/min/μg.
